For test [1], the target named is T1, N-terminally polyhistidine tagged human MARCO ECD (147-520), recombinant (human, UniProt Q9UEW3 147-520).
T1 construct: also called PI-RG-3000; recombinant human MARCO; not shown: N-terminal polyhistidine tag
T1 sequence: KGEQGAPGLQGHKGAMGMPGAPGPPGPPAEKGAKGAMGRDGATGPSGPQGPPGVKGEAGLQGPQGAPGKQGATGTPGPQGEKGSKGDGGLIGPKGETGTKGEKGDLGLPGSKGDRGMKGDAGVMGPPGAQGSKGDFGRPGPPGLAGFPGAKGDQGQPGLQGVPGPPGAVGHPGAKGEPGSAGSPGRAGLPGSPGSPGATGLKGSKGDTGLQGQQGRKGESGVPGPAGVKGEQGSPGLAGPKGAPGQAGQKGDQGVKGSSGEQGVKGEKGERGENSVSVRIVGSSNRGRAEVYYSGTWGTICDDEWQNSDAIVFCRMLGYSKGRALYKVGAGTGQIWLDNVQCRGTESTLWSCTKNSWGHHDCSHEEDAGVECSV
Kind of test: ELISA on hMARCO ECD with 2 mM Ca2+, A450-A620. (An ELISA detects its analyte on a solid surface through an enzyme-linked reagent.)

For test [2], the target named is T1, N-terminally polyhistidine tagged human …. Kind of test: ELISA on hMARCO ECD with 2 mM EDTA, A450-A620.
Test [3] has the same target. The test can be described thus: SPR, single cycle (sc). (In general: SPR reads the build-up and loss of mass on a sensor chip optically.)
In test [4] the target is T2, recombinant cynomolgus MARCO protein (cynomolgus, UniProt A0A2K5X0Z2 65-519).
T2 construct: Construct not described; also called cyno MARCO; cynoMARCO
T2 sequence: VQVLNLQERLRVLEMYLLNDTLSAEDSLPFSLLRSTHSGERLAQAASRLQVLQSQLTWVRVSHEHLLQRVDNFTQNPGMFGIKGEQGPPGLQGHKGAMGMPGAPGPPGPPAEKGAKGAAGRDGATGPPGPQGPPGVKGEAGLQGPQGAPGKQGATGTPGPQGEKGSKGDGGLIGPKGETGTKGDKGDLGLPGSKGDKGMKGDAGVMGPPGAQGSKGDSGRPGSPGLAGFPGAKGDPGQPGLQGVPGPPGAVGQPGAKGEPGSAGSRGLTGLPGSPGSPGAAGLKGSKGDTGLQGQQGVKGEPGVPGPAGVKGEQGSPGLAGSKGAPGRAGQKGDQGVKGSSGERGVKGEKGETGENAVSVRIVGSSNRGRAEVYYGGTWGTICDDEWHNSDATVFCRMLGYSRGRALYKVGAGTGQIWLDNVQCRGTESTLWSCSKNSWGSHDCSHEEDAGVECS
Kind of test: SPR, single cycle (sc).

Test [5] deals with T3, Cynomolgus MARCO, full length, on cells (cynomolgus, UniProt A0A2K5X0Z2 1-519).
T3 construct: whole, on cells; also called cyno MARCO; CyMARCO
T3 sequence: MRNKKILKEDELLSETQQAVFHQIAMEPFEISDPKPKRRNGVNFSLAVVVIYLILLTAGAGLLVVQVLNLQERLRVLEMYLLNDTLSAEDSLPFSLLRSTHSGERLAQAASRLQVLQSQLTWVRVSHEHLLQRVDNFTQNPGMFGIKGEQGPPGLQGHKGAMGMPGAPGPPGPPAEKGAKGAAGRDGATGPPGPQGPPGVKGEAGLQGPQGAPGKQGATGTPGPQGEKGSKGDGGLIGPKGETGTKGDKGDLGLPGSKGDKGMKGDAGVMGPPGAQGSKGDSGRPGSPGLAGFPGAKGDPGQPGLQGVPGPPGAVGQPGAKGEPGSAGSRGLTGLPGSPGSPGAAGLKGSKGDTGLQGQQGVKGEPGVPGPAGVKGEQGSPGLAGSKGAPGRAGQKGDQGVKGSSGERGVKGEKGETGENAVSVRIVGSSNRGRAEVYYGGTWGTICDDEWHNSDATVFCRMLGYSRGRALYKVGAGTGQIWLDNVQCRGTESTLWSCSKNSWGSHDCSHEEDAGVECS
The test can be described thus: flow cytometry, cells overexpressing cyno MARCO.

Test [6] deals with T4, Human Macrophage Receptor with Collagenous Structure (MARCO), full length, on cells (human, UniProt Q9UEW3 1-520).
T4 construct: the cell type is named under assay; also called huMARCO; HuMARCO
T4 sequence: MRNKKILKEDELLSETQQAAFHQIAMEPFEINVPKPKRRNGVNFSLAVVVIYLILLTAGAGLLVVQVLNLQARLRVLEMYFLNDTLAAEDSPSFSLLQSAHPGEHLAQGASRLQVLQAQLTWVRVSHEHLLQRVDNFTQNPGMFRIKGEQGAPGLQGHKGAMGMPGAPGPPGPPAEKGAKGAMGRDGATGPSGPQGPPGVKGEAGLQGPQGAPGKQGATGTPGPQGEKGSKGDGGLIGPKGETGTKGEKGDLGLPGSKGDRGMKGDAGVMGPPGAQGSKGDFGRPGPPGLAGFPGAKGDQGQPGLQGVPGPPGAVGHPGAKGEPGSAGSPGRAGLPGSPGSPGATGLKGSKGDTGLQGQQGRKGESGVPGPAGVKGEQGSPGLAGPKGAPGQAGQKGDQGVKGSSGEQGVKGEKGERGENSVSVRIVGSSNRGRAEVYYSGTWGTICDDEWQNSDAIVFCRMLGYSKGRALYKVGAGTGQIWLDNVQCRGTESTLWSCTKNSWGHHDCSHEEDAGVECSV
Kind of test: flow cytometry, cells overexpressing human MARCO.

In test [7] the target is T4, Human Macrophage Receptor with …. The test can be described thus: cell-based competition with AF488 E. coli binding to cells expressing MARCO. As for the experimental part:
Zombie NIR viability dye (BioLegend), prepared by diluting the stock 1000-fold in D-PBS, was added to the cells and incubated for 10 min at RT in the dark. The reaction was quenched by adding 1 m of 4× Staining buffer (2% FBS in DBPS containing Ca2+), followed by centrifugation at 400×g for 5 min at 4° C. Cells were then plated in V-shaped 96 well plates at a density of 100,000 cells. A488-fluorescently labeled bacteria (E. coli from Invitrogen) was added at 10 μg/ml with the anti-human MARCO antibodies of interest for a 30 min incubation at 37 C. Plates were then washed twice followed by resuspension in 100 ul of staining buffer for acquisition on the flow cytometer (Attune NxT, Life Technologies). Flow cytometry data were analyzed using FlowJo software (version 10.6.1) and data were processed and further analyzed in Microsoft Excel and GraphPad Prism software (version 8).

Test [8] deals with T1, N-terminally polyhistidine tagged human …. The test can be described thus: Biacore; sample stressed 40 C 2 week. The method, then: Binding of the stressed samples to recombinant human MARCO was assessed by Biacore.
The target of test [9] is T2, recombinant cynomolgus MARCO protein. Kind of test: Biacore (SPR), recombinant cyno MARCO.
In test [10] the target is T1, N-terminally polyhistidine tagged human …. Kind of test: Biacore (SPR), recombinant human MARCO. The gist of the method:
(§1)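 Binding kinetics and affinity of antibodies for the N-terminally His-tagged human MARCO extracellular domain (147-520) were determined by surface plasmon resonance with multi-cycle kinetics on a Biacore T200. The antibodies were captured on a CM4 chip carrying amine-coupled anti-mouse Fc mAb (4500 RU target), and the runs were done at 25° C in 10 mM HEPES pH 7.4, 150 mM NaCl, 3 mM EDTA, 0.05% surfactant P20. The analyte was injected at 0.625–10 nM with 90 s association and 600 s dissociation, and the constants were fitted in BIAevaluation 3.1.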

The target is the same in test [11]. The test can be described thus: Biacore (SPR), binding affinity to human MARCO. Summed up: as §1
The target is the same in test [12]. Kind of test: Biacore, recombinant human MARCO; control sample.
The target is the same in test [13]. Kind of test: Biacore; deamidation stress sample (40 C 2 week).
Test [14] has the same target. Kind of test: Biacore; isomerization/fragmentation stress sample.
In test [15] the target is T4, Human Macrophage Receptor with …. The test can be described thus: flow cytometry, cells overexpressing human MARCO; hu (first of hu/cyn). In general terms: A flow cytometer gives signals particle by particle.
For test [16], the target named is T3, Cynomolgus MARCO, full length, on cells. The test can be described thus: flow cytometry, cells overexpressing cyno MARCO; cyn (second of hu/cyn).
In test [17] the target is T1, N-terminally polyhistidine tagged human …. Kind of test: ELISA readout A450-A620; the panel names no target, the legend says MARCO expressing cells; stable transfection pools.
For test [18] the target is unchanged. Kind of test: ELISA readout A450-A620; the panel names no target, the legend says MARCO expressing cells; transiently made reference antibody.

Substitutions are numbered along the chain they refer to.

B1: PI-3032-AB (antibody, human IgG1, kappa, V domains shown)
VH: EVQLVESGGGLVQPGGSLRLSCAASKFTFSNYGMNWIRQAPGKGLEWIALIYYNSNNKYYADSVKGRFTISRDNSKNTLYLQMNSLRAEDTAVYYCAKSLTGGSDYFDSWGQGTLVTVSS
VL: DIQMTQSPSSLSASVGDRVTITCRASKSIGTFLAWYQQKPGKAPKLLIYSGSTLESGVPSRFSGSGSGTDFTLTISSLQPEDFATYYCQQHDEYPFTFGQGTKLEIKR
notes: calcium independent
In general, EC50 (read off the curve) refers to the concentration giving half of the maximal effect. In the case of B1, the concentration giving a half-maximal response (EC50 (read off the curve)) in test [1] is roughly 0.9 nM; in test [2], roughly 0.2 nM.

B2: PI-3012-AB (antibody, human IgG1, kappa, V domains shown)
VH: QVQLQESGPGLVKPSETLSLTCTVSGFSLTSYHVSWVRQPPGKGLEWIGAIWTGGSIAYNPSLKSRVTISRDTSKNQVSLKLSSVTAADTAVYYCARDLSDYYSSYTSFDYWGQGTLVTVSS
VL: DIQMTQSPSSLSASVGDRVTITCRASEGISNDLAWYQQKPGKAPKLLIYAASRLQSGVPSRFSGSGSGTDYTLTISSLQPEDFATYYCQQSYKYPLTFGQGTKLEIKR
The term Kd denotes the constant that tells how readily two partners part at equilibrium. The EC50 is the midpoint of the concentration-response curve. The low end stands for an effect from little substance, the high end for a need for much substance. For B2, the figures for the Kd in test [3] and in test [4] were 1.13 nM and 0.735 nM, respectively. For the same molecule, the half-maximal effective concentration (EC50) was 1.4 nM in [5], 0.57 nM in test [6] and 0.12 nM in test [7].

B3: PI-3025-AB (antibody, human IgG1, kappa)
heavy: not shown
light: DIQMTQSPSSLSASVGDRVTITCRASEGISNDLAWYQQKPGKAPKLLIYAASRLQDGVPSRFSGSGSGTDYTLTISSLQPEDFATYYCQQSYKYPLTFGQGTKLEIKRTVAAPSVFIFPPSDEQLKSGTASVVCLLNNFYPREAKVQWKVDNALQSGNSQESVTEQDSKDSTYSLSSTLTLSKADYEKHKVYACEVTHQGLSSPVTKSFNRGEC
notes: also called PI-3025-AB2
One may read the koff as the first-order rate constant of dissociation. On to B3, for which the Kd in test [8] was 0.58 nM; in [9], 1.79 nM; in test [10] it was 1.09 nM; in test [11], 1.09 nM; in test [12], 0.54 nM; in test [13] it was 0.66 nM. The Kd in test [14] amounted to 0.66 nM. For the same molecule, in test [10], the koff was found to be 0.00043 s⁻¹. The 50% effective concentration (EC50 (read off the curve)) in [1] was roughly 1 nM; in test [17] it was roughly 0.2 nM; in test [18], roughly 0.2 nM. Further, the values for the EC50 in test [15] and in test [16] were 0.79 nM and 1.01 nM, respectively.

B4: PI-3041-AB (antibody, human IgG1, kappa)
heavy: not shown
light: B3 light with E27A, Y71F, L78M, L96W
notes: Humanized PI-HX-3011, hIgG1
Regarding B4, the Kd in [8] came out at 0.36 nM; in test [9] it was 1.12 nM; in [10] it was 0.82 nM; in [11], 0.82 nM; in test [12], 0.24 nM; in test [13], 0.39 nM. The equilibrium dissociation constant (Kd) in test [14] was found to be 0.34 nM. Besides, in test [10], the koff stood at 0.000334 s⁻¹. Besides, the figures for the “EC50 (read off the curve)” value in test [1], in test [17] and in test [18] were roughly 0.8 nM, roughly 0.2 nM and roughly 0.2 nM, respectively. Also, the concentration giving a half-maximal response (EC50) in test [15] was 0.704 nM; in [16], 1.03 nM.

The record behind these values is patent US20220153832A1 (PIONYR IMMUNOTHERAPEUTICS, published 2022).
